Among the data in article PMC3428313 are Kd values, retold here.

As usually defined, the Kd is the constant that tells how readily two partners part at equilibrium.

Series [1] relates to C/EBPbeta isoform LAP, P17676-2. Description: competition EMSA. The conditions noted are these: 20 mM HEPES pH 8.0, 1 mM MgCl2, 60 mM KCl, 0.1 mM EDTA, 15% glycerol, 1 ug poly dI-dC, 8 ug nuclear extract; 30 min room temperature then 15 min 4 C; gel at …. (A gel shift assay detects complexes by their altered migration in electrophoresis.)
Sequence of C/EBPbeta isoform LAP, P17676-2 (P17676 24-345): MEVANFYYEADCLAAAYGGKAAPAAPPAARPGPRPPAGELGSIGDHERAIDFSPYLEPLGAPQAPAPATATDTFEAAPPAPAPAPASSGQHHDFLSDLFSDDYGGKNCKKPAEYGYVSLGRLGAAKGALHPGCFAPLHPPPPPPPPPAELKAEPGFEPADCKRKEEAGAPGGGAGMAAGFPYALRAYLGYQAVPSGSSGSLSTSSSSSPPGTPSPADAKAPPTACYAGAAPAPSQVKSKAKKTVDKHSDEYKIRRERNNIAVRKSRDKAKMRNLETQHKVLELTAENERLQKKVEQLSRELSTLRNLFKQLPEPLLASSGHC
The subject of series [2] is C/EBPbeta isoform LIP (Flag-LIP), P17676-3. Description: competition EMSA. The conditions noted are these: 20 mM HEPES pH 8.0, 1 mM MgCl2, 60 mM KCl, 0.1 mM EDTA, 15% glycerol, 1 ug poly dI-dC, 8 ug nuclear extract; 30 min room temperature then 15 min 4 C; gel at ….

Sequence of C/EBPbeta isoform LIP (Flag-LIP), P17676-3 (P17676 199-345): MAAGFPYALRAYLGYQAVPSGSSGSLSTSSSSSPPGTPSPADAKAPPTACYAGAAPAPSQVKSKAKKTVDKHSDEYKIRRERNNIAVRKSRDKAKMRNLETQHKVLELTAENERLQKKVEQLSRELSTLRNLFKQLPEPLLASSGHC

Consider “GCTTGCTTGCTTAAAGACCT (double strand) [DS1C/A C/EBP site]”, for which the Kd in series [1] is 24.8 10^-7 M; in series [2], 5.1 10^-7 M.
Turning to “GCTTGCTTGCTTAAAGCCCT (double strand) [DS1 wild-type C/EBP site]”, the Kd in series [1] is 50 10^-7 M; in series [2], 17.5 10^-7 M.
